Results from the supplement of paper PMC9112550, “Optimization of the antimicrobial peptide Bac7 by deep mutational scanning” (BMC Biology, 2022).

System: Escherichia coli TOP10
Experiment: shrunken log2 fold change of peptide-encoding DNA abundance (4.5 h post-induction vs induction); higher = less antimicrobial activity (less host growth inhibition)
Settings: time post-induction: 4.5 h; library: site-saturation at positions 5, 18, 19, 20
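Further: peptides expressed intracellularly from a pBAD plasmid library in pooled LB shake-flask culture, induced with 0.3% L-arabinose, DNA abundance read by NGS, three biological replicates, DESeq2 with apeglm shrinkage.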

Sequence | shrunken log2 fold change
RRIRCRPPRLPRPRPRPLMMPRP | 0.239
RRIRHRPPRLPRPRPRPWVCPRP | -0.044
RRIRIRPPRLPRPRPRPCNCPRP | 0.174
RRIRPRPPRLPRPRPRPNMVPRP | -0.772
RRIRQRPPRLPRPRPRPEIKPRP | -0.342
RRIRARPPRLPRPRPRPICPPRP | 0.0597
RRIRQRPPRLPRPRPRPNLKPRP | -0.196
RRIRFRPPRLPRPRPRPFSYPRP | -0.777
RRIRDRPPRLPRPRPRPNPIPRP | -0.132
RRIRYRPPRLPRPRPRPHTGPRP | -1.06
RRIRDRPPRLPRPRPRPETWPRP | 0.0111
RRIRYRPPRLPRPRPRPWIQPRP | -0.101
RRIRARPPRLPRPRPRPVKCPRP | 0.03
RRIRQRPPRLPRPRPRPRRCPRP | 0.271
RRIRERPPRLPRPRPRPFIMPRP | -0.0895
RRIRARPPRLPRPRPRPYDKPRP | -0.865
RRIRFRPPRLPRPRPRPNRQPRP | -0.564
RRIRYRPPRLPRPRPRPRCKPRP | -0.573
RRIRSRPPRLPRPRPRPHCFPRP | 0.111
RRIRNRPPRLPRPRPRPHTIPRP | -0.106
RRIRHRPPRLPRPRPRPVASPRP | -0.122
RRIRGRPPRLPRPRPRPYKGPRP | -0.236
RRIRWRPPRLPRPRPRPEVHPRP | -0.039
RRIRMRPPRLPRPRPRPNVMPRP | -0.108
RRIRMRPPRLPRPRPRPFANPRP | -0.0062

Sequence | shrunken log2 fold change
RRIRLRPPRLPRPRPRPGQAPRP | 0.39
RRIRKRPPRLPRPRPRPREKPRP | -0.107
RRIRKRPPRLPRPRPRPYSFPRP | -0.119
RRIRTRPPRLPRPRPRPLVLPRP | -0.162
RRIRSRPPRLPRPRPRPWANPRP | 0.0508
RRIRKRPPRLPRPRPRPTWFPRP | 0.203
RRIRPRPPRLPRPRPRPVIAPRP | 0.0792
RRIRARPPRLPRPRPRPYMNPRP | -0.337
RRIRIRPPRLPRPRPRPDSYPRP | 0.072
RRIRTRPPRLPRPRPRPVWHPRP | 0.095
RRIRLRPPRLPRPRPRPGLRPRP | 0.234
RRIRMRPPRLPRPRPRPYTLPRP | -0.274
RRIRNRPPRLPRPRPRPIPAPRP | -0.0451
RRIRARPPRLPRPRPRPWKAPRP | -0.0198
RRIRLRPPRLPRPRPRPLTFPRP | -0.633
RRIRCRPPRLPRPRPRPWIHPRP | -0.277
RRIRCRPPRLPRPRPRPYGLPRP | -0.0136
RRIRMRPPRLPRPRPRPKREPRP | 0.055
RRIRYRPPRLPRPRPRPHETPRP | -0.0345
RRIRERPPRLPRPRPRPYWGPRP | -0.346
RRIRWRPPRLPRPRPRPTMNPRP | -0.225
RRIRSRPPRLPRPRPRPTCHPRP | 0.024
RRIRDRPPRLPRPRPRPEQHPRP | 0.465
RRIRDRPPRLPRPRPRPYFTPRP | -0.573
RRIRGRPPRLPRPRPRPQKHPRP | 0.982

Sequence | shrunken log2 fold change
RRIRCRPPRLPRPRPRPPMYPRP | -0.156
RRIRQRPPRLPRPRPRPHGFPRP | -0.0134
RRIRWRPPRLPRPRPRPVKCPRP | -0.015
RRIRPRPPRLPRPRPRPAFSPRP | 0.117
RRIRERPPRLPRPRPRPMVLPRP | 0.104
RRIRHRPPRLPRPRPRPLVQPRP | -0.0987
RRIRRRPPRLPRPRPRPGYAPRP | 0.259
RRIRERPPRLPRPRPRPGKIPRP | 0.139
RRIRTRPPRLPRPRPRPMKYPRP | -0.0467
RRIRQRPPRLPRPRPRPHDAPRP | -0.0149
RRIRDRPPRLPRPRPRPGCCPRP | 0.617
RRIRARPPRLPRPRPRPNENPRP | 0.177
RRIRNRPPRLPRPRPRPADVPRP | -0.289
RRIRERPPRLPRPRPRPMGNPRP | 0.0248
RRIRPRPPRLPRPRPRPFQNPRP | -0.445
RRIRDRPPRLPRPRPRPDKAPRP | -0.00804
RRIRQRPPRLPRPRPRPPLFPRP | 0.838
RRIRMRPPRLPRPRPRPDFGPRP | 0.0563
RRIRPRPPRLPRPRPRPQVMPRP | -0.286
RRIRTRPPRLPRPRPRPIAMPRP | -0.387
RRIRWRPPRLPRPRPRPFASPRP | 0.177
RRIRGRPPRLPRPRPRPVKSPRP | 0.0201
RRIRIRPPRLPRPRPRPYYAPRP | -0.949
RRIRPRPPRLPRPRPRPWFKPRP | -0.125
RRIRTRPPRLPRPRPRPTILPRP | -0.453

Sequence | shrunken log2 fold change
RRIRHRPPRLPRPRPRPHHVPRP | -0.35
RRIRLRPPRLPRPRPRPNYGPRP | -0.0135
RRIRGRPPRLPRPRPRPNTQPRP | 0.224
RRIRSRPPRLPRPRPRPAPPPRP | 0.458
RRIRFRPPRLPRPRPRPIAGPRP | 0.0541
RRIRDRPPRLPRPRPRPYPVPRP | 0.00705
RRIRNRPPRLPRPRPRPWTEPRP | -0.249
RRIRARPPRLPRPRPRPPGKPRP | 0.188
RRIRARPPRLPRPRPRPDNYPRP | 0.0577
RRIRLRPPRLPRPRPRPCVCPRP | -0.00623
RRIRERPPRLPRPRPRPFPHPRP | -0.15
RRIRCRPPRLPRPRPRPFDLPRP | -0.0696
RRIRERPPRLPRPRPRPMPFPRP | 0.00529
RRIRKRPPRLPRPRPRPSKRPRP | 0.0981
RRIRRRPPRLPRPRPRPSRQPRP | 0.352
RRIRLRPPRLPRPRPRPRNSPRP | -0.051
RRIRYRPPRLPRPRPRPQFLPRP | -0.132
RRIRCRPPRLPRPRPRPYRRPRP | -0.344
RRIRFRPPRLPRPRPRPWEQPRP | -0.00193
RRIRCRPPRLPRPRPRPMIYPRP | -0.144
RRIRYRPPRLPRPRPRPHNDPRP | -0.692
RRIRRRPPRLPRPRPRPMSDPRP | -0.00309
RRIRRRPPRLPRPRPRPVPAPRP | 1.06
RRIRCRPPRLPRPRPRPLGLPRP | -0.0163
RRIRCRPPRLPRPRPRPKEYPRP | -0.207

Sequence | shrunken log2 fold change
RRIRPRPPRLPRPRPRPNKRPRP | -0.101
RRIRDRPPRLPRPRPRPTIGPRP | -0.0292
RRIRMRPPRLPRPRPRPILWPRP | 0.00288
RRIRHRPPRLPRPRPRPNCTPRP | -0.142
RRIRNRPPRLPRPRPRPRVLPRP | 0.0234
RRIRQRPPRLPRPRPRPRYSPRP | -0.192
RRIRIRPPRLPRPRPRPPCRPRP | 0.0264
RRIRVRPPRLPRPRPRPFKRPRP | -0.165
RRIRNRPPRLPRPRPRPNAPPRP | -0.194
RRIRRRPPRLPRPRPRPKLLPRP | 0.178
RRIRTRPPRLPRPRPRPDKEPRP | -0.0196
RRIRERPPRLPRPRPRPKSRPRP | 0.0203
RRIRGRPPRLPRPRPRPEQKPRP | 0.105
RRIRARPPRLPRPRPRPFFCPRP | 0.2
RRIRDRPPRLPRPRPRPNKHPRP | -0.425
RRIRDRPPRLPRPRPRPCHLPRP | -0.00196
RRIRYRPPRLPRPRPRPAYEPRP | -0.184
RRIRNRPPRLPRPRPRPIHCPRP | -0.244
RRIRFRPPRLPRPRPRPDGAPRP | -0.0432
RRIRCRPPRLPRPRPRPDVRPRP | -0.0317
RRIRSRPPRLPRPRPRPMGNPRP | 0.0909
RRIRQRPPRLPRPRPRPGKNPRP | -0.294
RRIRYRPPRLPRPRPRPLMVPRP | -0.439
RRIRPRPPRLPRPRPRPYNFPRP | -0.289
RRIRQRPPRLPRPRPRPTFCPRP | -0.0744

Sequence | shrunken log2 fold change
RRIRKRPPRLPRPRPRPQAMPRP | 0.146
RRIRVRPPRLPRPRPRPIRKPRP | -0.165
RRIRERPPRLPRPRPRPWDDPRP | -0.0464
RRIRMRPPRLPRPRPRPHQIPRP | -0.00201
RRIRFRPPRLPRPRPRPFHHPRP | -0.976
RRIRSRPPRLPRPRPRPKAPPRP | 0.184
RRIRCRPPRLPRPRPRPRKCPRP | 0.0179
RRIRPRPPRLPRPRPRPENYPRP | -0.283
RRIRQRPPRLPRPRPRPQCWPRP | -0.0996
RRIRSRPPRLPRPRPRPFCYPRP | -0.528
RRIRKRPPRLPRPRPRPIDCPRP | 0.0653
RRIRIRPPRLPRPRPRPTHEPRP | -0.0459
RRIRCRPPRLPRPRPRPGISPRP | -0.195
RRIRPRPPRLPRPRPRPMTKPRP | 0.0497
RRIRIRPPRLPRPRPRPYRTPRP | 0.0026
RRIRSRPPRLPRPRPRPRDLPRP | 0.254
RRIRARPPRLPRPRPRPAPIPRP | 0.448
RRIRWRPPRLPRPRPRPQMQPRP | 0.0894
RRIRMRPPRLPRPRPRPGKVPRP | 0.101
RRIRPRPPRLPRPRPRPFLFPRP | -0.204
RRIRRRPPRLPRPRPRPSATPRP | 0.756
RRIRSRPPRLPRPRPRPWEAPRP | 0.019
RRIRLRPPRLPRPRPRPDESPRP | 0.148
RRIRERPPRLPRPRPRPTEDPRP | -0.317
RRIRNRPPRLPRPRPRPLGCPRP | -0.27
